Patent US10662230B2, “Cyclic RGD cell-binding motif and uses thereof” (Spiber Technologies AB, priority 2015, dated 2020)

Experiments:
[1] = tested on: Mouse Mesenchymal stem cells; test: Cell culture on FNCC silk coatings; type: cell-based; conditions: coating 0.1 mg/ml
Method: (§1) After purification, solutions of FNCC-silk protein (SEQ ID NO: 13) were used to coat cell culture plates (Sarstedt, hydrophobic plates for suspension cells). Briefly, the protein solutions were diluted to 0.1 mg/ml in Tris buffer, and allowed to incubate at room temperature for 30 minutes before removal and wash.
(§2) Cells were harvested using trypsination (TrpLE) and seeded onto the FNcc-silk coatings at suitable cell density (3-10 000 cells/cm2). Cell growth was monitored with Alamar Blue cell viability assay (Molecular Probes) regularly (every 2-3 day). At the end point, after 7-14 days, Live/dead staining was performed.

[2] = tested on: HaCaT Keratinocytes; test: Cell culture on FNCC silk coatings; type: cell-based; conditions: coating 0.1 mg/ml
Method: as §1, §2

[3] = tested on: MIN6-m9 pancreatic cell line; test: Cell culture on FNCC silk coatings; type: cell-based; conditions: coating 0.1 mg/ml
Method: as §1, §2

[4] = tested on: Human Skeletal Muscle Satellite Cells; test: Cell culture on FNCC silk coatings; type: cell-based; conditions: coating 0.1 mg/ml
Method: as §1, §2

[5] = tested on: Human Mesenchymal stem cells; test: Cell culture on FNCC silk coatings; type: cell-based; conditions: coating 0.1 mg/ml
Method: as §1, §2

[6] = tested on: Human Dermal Microvascular Endothelial Cells; test: Cell culture on FNCC silk coatings; type: cell-based; conditions: coating 0.1 mg/ml
Method: as §1, §2

[7] = tested on: dermal keratinocytes (NHEK); test: Repopulation assay (wound field); type: cell-based, human; conditions: 0.9 mm wound field, 6 days of culture
Method: To evaluate the ability of the different silk variants to support repopulation of an open would field, dermal keratinocytes (NHEK) were stained with Oregon green cell trace (Life Technologies) before seeded onto films of FNCC-silk (SEQ ID NO: 13) and WT-silk (SEQ ID NO: 2) at 20 000 cells/cm^2 in 24 well plates. Wound field inserts (CytoSelect™ Wound healing assay, Cell Biolabs) were added into the wells before cell seeding to generate a 0.9 mm wide open would field in the cell monolayer, while keeping the film intact. After 16 h the inserts were removed, and the repopulation process were followed each day and documented by inverted fluorescence microscopy at day 0 (insert removal), day 2 and 4. At day 6 cells were fixed and stained according to the assay protocol, and imaged by inverted bright field microscopy.
Thus, green-traced cells were seeded at high density into wells with inserts preventing cells to reach a defined part of the silk-film, the “wound field”. After monolayer formation outside the wound field, the insert was removed, and repopulation of the gap was documented during 6 days of culture, thus allowing both migration and proliferation of cells.

B1: FNCC-silk: recombinant spider silk protein 4RepCT with N-terminal cysteine-looped RGD motif CTGRGDSPAC (SEQ ID NO: 10) (protein)
chain: GPNSCTGRGDSPACGSASGQGGYGGLGQGGYGQGAGSSAAAAAAAAAAAAGGQGGQGQGGYGQGSGGSAAAAAAAAAAAAAAAGRGQGGYGQGSGGNAAAAAAAAAAAAAAAGQGGQGGYGRQSQGAGSAAAAAAAAAAAAAAGSGQGGYGGQGQGGYGQSSASASAAASAASTVANSVSRLSSPSAVSRVSSAVSSLVSNGQVNMAALPNIISNISSSVSASAPGASGCEVIVQALLEVITALVQIVSSSSVGYINPSAVNQITNVVANAMAQVMG
modifications: cyclic disulfide loop; Fusion protein; DISULFID (5)..(14)
[1]; 7-14 days
  growth profile (Alamar Blue): positive growth profile
[1]; after 7-14 days
  viable cells at the end point (Live/dead staining): > 80%
[2]; 7-14 days
  growth profile (Alamar Blue): positive growth profile
[2]; after 7-14 days
  viable cells at the end point (Live/dead staining): > 80%
[3]; 7-14 days
  growth profile (Alamar Blue): positive growth profile
[3]; after 7-14 days
  viable cells at the end point (Live/dead staining): > 80%
[4]; 7-14 days
  growth profile (Alamar Blue): positive growth profile
[4]; after 7-14 days
  viable cells at the end point (Live/dead staining): > 80%
[5]; 7-14 days
  growth profile (Alamar Blue): positive growth profile
[5]; after 7-14 days
  viable cells at the end point (Live/dead staining): > 80%
[6]; 7-14 days
  growth profile (Alamar Blue): positive growth profile
[6]; after 7-14 days
  viable cells at the end point (Live/dead staining): > 80%
[7]
  repopulation of the wound field: efficiently repopulated the wound field on FNCC-silk, which was almost completely covered with cells at the end of the experiment
